# Experimental data taken from US20220031857A1 (OSSIANIX, published 2022).
# Residue numbers refer to the chain shown, from its start.
# B1: SEQ ID NO 11 (VNAR clone displayed on phage) (VNAR)
# VNAR: ARVDQTPQTITKETGESLTINCVLRDSNCALPSTHWYRKKSGSTNEESISKGGRYVETVNSGSKSFSLRINDLTVEDSGTYRCKVLNFFTHTCVQVQKYDVYGGGTAVTVNA
# notes: shark VNAR domain on M13 phage; coat-protein fusion not described; also called clone 11
# B2: SEQ ID NO 41 (VNAR clone displayed on phage) (VNAR)
# VNAR: ARVDQTPQTITKETGESLTINCVLRDSNCALSSTLWYRTKSGSRNEESISKGGRYVETVNSGSKSFSLKINDLTVEDSGTYRCKVCRQCCVATCDDLSLLCDVYGDGTAVTVNA
# notes: shark VNAR domain on M13 phage; coat-protein fusion not described
# B3: SEQ ID NO 42 (VNAR clone displayed on phage) (VNAR)
# VNAR: ARVDQTPRSVTKETGESLTINCVLRDASYALGSTCWYRKKSGSTNEESISKGGRYVETVNSGSKSFSLRINDLTVEDGGTYRCGVCEMQLIAVDSCDHTLDDGLCGGVYAACGDGTAVTVNA
# notes: as for B2
# B4: SEQ ID NO 43 (VNAR clone displayed on phage) (VNAR)
# VNAR: ARVDQTPRSVTKETGESLTINCVLRDASYALGSTCWYRKKSGSTNEESISKGGRYVETVNSGSKSFSLRINDLTVEDGGTYRCGVYGGTHQGLCGCDWQLRFSLCGDGRAACGDGTAVTVNA
# notes: as for B2
# B5: SEQ ID NO 44 (VNAR clone displayed on phage) (VNAR)
# VNAR: ARVDQTPRSVTKETGESLTINCVLRDASYALGSTCWYRKKSGSTNEESISKGGRYVETVNSGSKSFSLRINDLTVEDGGTYRCGVCQCWSANVWVDCDMTSTSIRMRDGSRSNARAACGDGTAVTVNA
# notes: as for B2
# B6: SEQ ID NO 45 (VNAR clone displayed on phage) (VNAR)
# VNAR: ARVDQTPRSVTKETGESLTINCVLRDASYALGSTCWYRKKSGSTNEESISKGGRYVETVNSGSKSFSLRINDLTVEDGGTYRCGVCESSFCSLPYDCDSSSAGSVIQPFGHIVSLAACGDGTAVTVNA
# notes: as for B2
# B7: SEQ ID NO 47 (VNAR clone displayed on phage) (VNAR)
# VNAR: ARVDQTPRSVTKETGESLTINCVLRDASYALGSTCWYRKKSGSTNEESISKGGRYVETVNSGSKSFSLRINDLTVEDGGTYRCGAAIQGFWAGRCDNLPGKCVMQVSNAAACGDGTAVTVNA
# notes: as for B2
# B8: SEQ ID NO 48 (VNAR clone displayed on phage) (VNAR)
# VNAR: ARVDQTPRSVTKETGESLTINCVLRDASYELGSTCWYRKKSGSTNEESISKGGRYVETVNSGSKSFSLRINDLTVEDGGTYRCGASLQCGNCELCDREQLQCGGQRGQLAACGDGTAVTVNA
# notes: as for B2
# B9: SEQ ID NO 49 (VNAR clone displayed on phage) (VNAR)
# VNAR: ARVDQTPRSVTKETGESLTINCVLRDASYELGSTCWYRKKSGSTNEESISKGGRYVETVNSGSKSFSLRINDLTVEDGGTYRCGVISQYKSYTLWCDALYRSLGCECARAACGDGTAVTVNA
# notes: as for B2
# B10: SEQ ID NO 50 (VNAR clone displayed on phage) (VNAR)
# VNAR: ARVDQTPRSVTKETGESLTINCVLRDASYALGSTCWYRKKSGSTNEESISKGGRYVETVNSGSKSFSLRINDLTVEDGGTYRCGVMNNVSQTWVRCDSQVMSQQCVQQSAACGDGTAVTVNA
# notes: as for B2
# B11: SEQ ID NO 51 (VNAR clone displayed on phage) (VNAR)
# VNAR: ARVDQTPRSVTKETGESLTINCVLRDASYALGSTCWYRKKSGSTNEESISKGGRYVETVNSGSKSFSLRINDLTVEDSGTYRCNVIQYLYLGSYFACDVYGGGTVVTVNA
# notes: as for B2
# B12: SEQ ID NO 46 (VNAR clone displayed on phage) (VNAR)
# VNAR: ARVDQTPRSVTKETGESLTINCVLRDASYALGSTCWYRKKSGSTNEESISKGGRYVETVNSGSKSFSLRINDLTVEDGGTYRCGVCSDYGLQTTGQQAACGDGTAVTVNA
# notes: as for B2
# B13: SEQ ID NO 1 (VNAR clone displayed on phage) (VNAR)
# VNAR: ARVDQTPQTITKETGESLTINCVLRDNNCALSTTYWYRKKSGSTNEENISKGGRYVETVNSGSKSFSLKINDLTVEDSGTYRCNVRDVQACGNDWVWLDVYGGGTVVTVNA
# notes: shark VNAR domain on M13 phage; coat-protein fusion not described; also called clone 1
# B14: SEQ ID NO 2 (VNAR clone displayed on phage) (VNAR)
# VNAR: ARVDQTPQTITKETGESLTINCVLRDNNCALSTTYWYRKKSGSTNEENISKGGRYVETVNSGSKSFSLKINDLTVEDSGTYRCNVFGVDNGWWCDVYGGGTVVTVNA
# notes: shark VNAR domain on M13 phage; coat-protein fusion not described; also called clone 2
# B15: SEQ ID NO 7 (VNAR clone displayed on phage) (VNAR)
# VNAR: ARVDQTPQTITKETGESLTINCVLRDSNCELSSTYWYRKKSGSTNEARISKGGRYVETVNSGSKSFSLKINDLTVEDSGTYRCNVLTTDSYDLGDVYGDGTVVTVNA
# notes: shark VNAR domain on M13 phage; coat-protein fusion not described; also called clone 7
# B16: SEQ ID NO 10 (VNAR clone displayed on phage) (VNAR)
# VNAR: ARVDQTPQTITKETGESLTINCVLRDSNCALSSTYWYRKKSGSTNEENISKGGRYVETVNSGSKSFSLRINDLTVEDSGTYRCNVVQYPSYNNYFWCDVYGDGTAVTVNA
# notes: shark VNAR domain on M13 phage; coat-protein fusion not described; also called clone 10
# B17: SEQ ID NO 12 (VNAR clone displayed on phage) (VNAR)
# VNAR: ARVDQTPQTITKETGESLTINCVLRDSICALSSTHWYRKKSGSTNEESISKGGRYVETVNSGSKSFSLRINDLTVEDSGTYRCKVVRSGVGPCWADVYGGGTAVTVNA
# notes: shark VNAR domain on M13 phage; coat-protein fusion not described; also called clone 12
# B18: SEQ ID NO 39 (VNAR clone displayed on phage) (VNAR)
# chain: ARVDQTPQTITKETGESLTINCVLRDSNCALSSTLWYRTKSGSRNEESISKGGRYVETVNSGSKSFSLKINDLTVEDSGTYRCNVQGMVYDGSSFWWCDVYGDSTAVTVNA
# notes: shark VNAR domain on M13 phage; coat-protein fusion not described; also called clone 39
# B19: SEQ ID NO 8 (VNAR clone displayed on phage) (VNAR)
# VNAR: B15 VNAR with K69R, L86Q, T87Y, T88F, D89L, S90C, Y91H, D92F, L93V, V102A
# notes: as for B2
# B20: SEQ ID NO 3 (VNAR clone displayed on phage) (VNAR)
# VNAR: ARVDQTPQTITKETGESLTINCVLRDNNCALSTTYWYRKKSGSTNEENISKGGRYVETVNSGSKSFSLKINDLTVEDSGTYRCNVTGYFRSTCLWRDVYGGGTAVTVNA
# notes: as for B2
# B21: SEQ ID NO 4 (VNAR clone displayed on phage) (VNAR)
# VNAR: ARVDQTPQTITKETGESLTINCVLRDSNCALSSTYWYRKKSGSTNEENISKGGRYVETVNSGSKSFSLKINDLTVEDSGTYRCNVQFTAALWCEAVLDVYGGGTVVTVNA
# notes: as for B2
# B22: SEQ ID NO 5 (VNAR clone displayed on phage) (VNAR)
# VNAR: ARVDQTPQTITKETGESLTINCVLRDSNCALSSTYWYRKKSGSTNEENISKGGRYVETVNSGSKSFSLKINDLTVEDSGTYRCNVQKGQHLQCHVAVQDVYGGGTAVTVNA
# notes: as for B2
# B23: SEQ ID NO 6 (VNAR clone displayed on phage) (VNAR)
# VNAR: ARVDQTPQTITKETGESLTINCVLRDSNCALSSTYWYRKKSDSTNEESISKGGRYVETVNSGSKSFSLRINDLTVEDSGTYRCNVQWWLRCGYFKDVYGGGTVVTVNA
# notes: as for B2
# B24: SEQ ID NO 9 (VNAR clone displayed on phage) (VNAR)
# chain: ARVDQTPQTITKETGESLTINCVLRDSNCALPSTYWYRKKSGSTNEARISKGGRYVETVNSGSKSFSLRINDLTVEDSGTIDARYRLSASAVLYQSYVDVYGGGTAVTVNA
# notes: as for B2
# Target: T1, recombinant mouse TfR2 (mouse, UniProt Q9JKX3 103-798, limits assumed)
# T1 construct: Negative control protein
# T1 sequence (looked up): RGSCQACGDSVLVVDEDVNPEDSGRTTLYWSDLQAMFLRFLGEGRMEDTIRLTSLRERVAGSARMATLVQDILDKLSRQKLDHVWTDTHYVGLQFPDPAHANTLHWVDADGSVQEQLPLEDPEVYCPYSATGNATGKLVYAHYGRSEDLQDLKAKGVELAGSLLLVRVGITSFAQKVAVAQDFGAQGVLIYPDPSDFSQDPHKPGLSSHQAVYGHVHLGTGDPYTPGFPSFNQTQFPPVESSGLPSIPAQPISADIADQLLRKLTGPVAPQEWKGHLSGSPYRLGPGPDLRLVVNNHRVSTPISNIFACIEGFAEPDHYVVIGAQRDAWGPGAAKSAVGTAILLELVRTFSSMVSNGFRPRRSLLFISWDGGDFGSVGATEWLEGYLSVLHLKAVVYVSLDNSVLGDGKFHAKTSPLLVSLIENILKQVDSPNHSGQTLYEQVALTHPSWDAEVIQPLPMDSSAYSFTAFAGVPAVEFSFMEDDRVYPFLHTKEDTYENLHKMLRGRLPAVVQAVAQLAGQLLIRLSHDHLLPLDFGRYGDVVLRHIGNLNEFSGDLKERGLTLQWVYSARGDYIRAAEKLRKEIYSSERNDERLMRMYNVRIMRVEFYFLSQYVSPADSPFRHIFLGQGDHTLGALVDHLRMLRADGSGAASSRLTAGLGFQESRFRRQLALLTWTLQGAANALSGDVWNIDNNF
# Experiment: phage ELISA
row,Binder,binding result
1,B1,no binding
2,B2,no binding
3,B3,no binding
4,B4,no binding
5,B5,no binding
6,B6,no binding
7,B7,no binding
8,B8,no binding
9,B9,no binding
10,B10,no binding
11,B11,no binding
12,B12,no binding
13,B13,no binding
14,B14,no binding
15,B15,no binding
16,B16,no binding
17,B17,no binding
18,B18,no binding

# Target: T2, recombinant mouse TfR1 (transferrin receptor 1) (mouse, UniProt Q62351 89-763)
# T2 construct: Bought recombinant His-tagged protein; also called mTfR1
# Experiment: phage ELISA
# T2 sequence (Q62351 89-763 limits assumed): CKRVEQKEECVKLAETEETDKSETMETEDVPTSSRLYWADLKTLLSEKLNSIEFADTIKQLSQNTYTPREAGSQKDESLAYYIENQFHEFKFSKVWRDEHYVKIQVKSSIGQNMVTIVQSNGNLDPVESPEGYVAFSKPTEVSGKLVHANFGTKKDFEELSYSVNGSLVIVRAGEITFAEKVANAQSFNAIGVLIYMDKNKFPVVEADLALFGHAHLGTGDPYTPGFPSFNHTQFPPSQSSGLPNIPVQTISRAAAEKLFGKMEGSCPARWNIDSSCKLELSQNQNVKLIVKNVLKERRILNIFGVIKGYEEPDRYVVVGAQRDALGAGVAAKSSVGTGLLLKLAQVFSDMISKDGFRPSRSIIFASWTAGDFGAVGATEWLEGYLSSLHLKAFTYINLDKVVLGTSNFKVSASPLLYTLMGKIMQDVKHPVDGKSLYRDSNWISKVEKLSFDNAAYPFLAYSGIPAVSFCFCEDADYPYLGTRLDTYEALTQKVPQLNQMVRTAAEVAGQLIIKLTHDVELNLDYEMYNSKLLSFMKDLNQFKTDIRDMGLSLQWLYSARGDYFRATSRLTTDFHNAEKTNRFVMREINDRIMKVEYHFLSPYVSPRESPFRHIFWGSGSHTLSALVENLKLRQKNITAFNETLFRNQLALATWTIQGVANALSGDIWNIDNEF
row,Binder,binding result
1,B19,binds
2,B20,binds
3,B21,binds
4,B22,binds
5,B23,binds
6,B24,binds
7,B2,binds
8,B3,binds
9,B4,binds
10,B5,binds
11,B6,binds
12,B7,binds
13,B8,binds
14,B9,binds
15,B10,binds
16,B11,binds

# Target: T3, recombinant human TfR1 (transferrin receptor 1) (human, UniProt P02786 89-760)
# T3 construct: Bought recombinant His-tagged protein; also called hTfR1
# Experiment: phage ELISA
# T3 sequence (P02786 89-760 limits assumed): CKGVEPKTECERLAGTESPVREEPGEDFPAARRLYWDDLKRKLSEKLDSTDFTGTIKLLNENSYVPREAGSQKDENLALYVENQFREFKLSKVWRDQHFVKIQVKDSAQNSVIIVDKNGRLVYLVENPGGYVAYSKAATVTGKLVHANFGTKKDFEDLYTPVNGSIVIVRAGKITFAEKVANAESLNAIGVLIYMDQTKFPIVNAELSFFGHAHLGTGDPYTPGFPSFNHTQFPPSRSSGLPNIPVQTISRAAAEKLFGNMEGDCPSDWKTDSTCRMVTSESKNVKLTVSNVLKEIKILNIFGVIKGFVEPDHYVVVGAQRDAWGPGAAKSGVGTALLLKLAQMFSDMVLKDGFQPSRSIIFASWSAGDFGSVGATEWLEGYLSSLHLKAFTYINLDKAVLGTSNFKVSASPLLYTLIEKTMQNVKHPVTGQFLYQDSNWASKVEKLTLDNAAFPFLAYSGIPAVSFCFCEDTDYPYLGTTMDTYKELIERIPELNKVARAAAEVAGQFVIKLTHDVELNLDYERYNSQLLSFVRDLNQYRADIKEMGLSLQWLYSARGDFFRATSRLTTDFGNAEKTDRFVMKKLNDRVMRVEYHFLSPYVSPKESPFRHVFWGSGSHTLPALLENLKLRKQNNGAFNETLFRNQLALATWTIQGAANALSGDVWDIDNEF
row,Binder,binding result
1,B19,binds
2,B20,binds
3,B21,binds
4,B22,binds
5,B23,binds
6,B24,binds
7,B1,binds
8,B2,binds
9,B3,binds
10,B4,binds
11,B5,binds
12,B6,binds
13,B7,binds
14,B8,binds
15,B9,binds
16,B10,binds
17,B11,binds

# Target: T4, human serum albumin (human, UniProt P02768 25-609)
# T4 construct: Negative control protein; also called HSA
# Experiment: phage ELISA
# T4 sequence (P02768 25-609 limits assumed): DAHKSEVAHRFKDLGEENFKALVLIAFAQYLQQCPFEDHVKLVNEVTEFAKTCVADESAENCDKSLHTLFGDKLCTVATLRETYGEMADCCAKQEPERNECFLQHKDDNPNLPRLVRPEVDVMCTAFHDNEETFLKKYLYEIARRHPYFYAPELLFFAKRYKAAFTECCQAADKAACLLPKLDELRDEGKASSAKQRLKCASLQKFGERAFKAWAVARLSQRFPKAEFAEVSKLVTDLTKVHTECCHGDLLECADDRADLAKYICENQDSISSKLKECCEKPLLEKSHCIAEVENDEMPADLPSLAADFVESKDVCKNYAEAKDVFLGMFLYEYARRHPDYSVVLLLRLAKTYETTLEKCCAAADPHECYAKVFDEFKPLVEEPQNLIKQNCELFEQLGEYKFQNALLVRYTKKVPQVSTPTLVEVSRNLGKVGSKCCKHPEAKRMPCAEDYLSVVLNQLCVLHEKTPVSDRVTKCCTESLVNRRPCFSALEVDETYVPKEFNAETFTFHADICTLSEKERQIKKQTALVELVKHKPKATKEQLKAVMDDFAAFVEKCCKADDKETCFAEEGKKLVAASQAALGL
row,Binder,binding result
1,B19,no binding
2,B20,no binding
3,B21,no binding
4,B22,no binding
5,B23,no binding
6,B24,no binding
7,B1,no binding
8,B3,no binding
9,B4,no binding
10,B5,no binding
11,B6,no binding
12,B7,no binding
13,B8,no binding
14,B9,no binding
15,B10,no binding
16,B11,no binding
17,B12,no binding
18,B13,no binding
19,B14,no binding
20,B15,no binding
21,B16,no binding
22,B17,no binding
23,B18,no binding
